{"source": "patent US7569660", "about": "(UNIVERSITY OF CHICAGO, dated 2009)", "proteins": {"B1": {"name": "NM R2E2 repeat expansion variant (other)", "chain": "MSDSNQGNNQQNYQQYSQNGNQQQGNNRYQGYQAYNAQAQPAGGYYQNYQGYSGYQQGGYQQYNPQGGYQQYNPQGGYQQYNPDAGYQQQYNPQGGYQQYNPQGGYQQQFNPQGGRGNYKNFNYNNNLQGYQAGFQPQSQGMSLNDFQKQQKQAAPKPKKTLKLVSSSGIKLANATKKVGTKPAESDKKEEEKSAETKEPTKEPTKVEEPVKKEEKPVQTEEKTEEKSELPKVEDLKISESTHNTNNANVTSADALIKEQEEEVDDEVVND"}}, "molecular_target": "the molecule itself"}
{"protein": "B1", "values": [{"measurement": "rate of conversion to a β-sheet rich structure relative to wild-type NM", "value": "~2", "unit": "fold"}]}
